# Reference: patent publication US8822171
# Tested on: recombinant human tau, largest isoform (2N4R)
Substance,"New sites identified in recombinant tau (phosphorylated residues, numbered on 441-residue human tau)","in vitro phosphorylation of recombinant tau, sites identified by LC/MS/MS"
casein kinase 2 (CK2),"(52/56), 199, 386, 400, (412/413/414/416, 1 site)",CK2 found 5 new sites making a total of 8 in all.
cyclic AMP-dependent protein kinase (PKA),"210, (217/220), 258, 352, (412/413)",PKA found 5 new sites making a total of 24 in all.
glycogen synthase kinase 3β (GSK-3β),"149, 220, 237, 241, 245, 258, 285, 289, 305, 352, 373, (409/412/413/414/416, 2 sites of which 1 or 2 are new)",GSK-3 found 12 new sites making a total of 38 in all.
